This note sets out measurements from the DeepSol protein solubility set.

The data set is described as follows: soluble on expression in E. coli; label from the status in PepcDB or PDB records.
With “MGSDKIHHHHHHMGLAFEHVTLGQRVLFGTGTAAPSLASEVARLGARRVMVITSNRARETAYRIAADVEVALWHHDVAMHVPIETARKARAAAGEHGIDLLVCVGGGSTTGLAKAIAMTLRLPIIAVPTTYAGSEATNVWGLTEASRKTTGVDDAVLPVTVIYDAALTLALPVAMSVASGLNGIAHCIDSMWAPGADPINAALGAEGIRALSHGLPLIAEDPAGTEGREQALYGAYLSAVAFASAGSGLHHKICHVLGGAFNLPHAQVHATVLPYVLAFNAPYASDSEARIAAAFGTADALTGLQELRNRLDAPKALSDYGLTADGAAEAAAVVQPTVPASNPRPVTTENLTRLLQAALSGEDPRCLLEH”, the “soluble on expression in E. coli” value is on record as “not soluble”.
Under “DKMDGAPSRVLHIRKLPGEVTETEVIALGLPFGKVTNILMLKGKNQAFLELATEEAAITMVNYYSAVTPHLRNQPIYIQYSNHKELKT” stands “soluble”; under “MQLEYPLTNHMKGNIVLTQEKTAIAYYRVRSETVMLTDVEKKLKTKRKVARALNRLKANDGFEINLLPVNADIRGKMGAMRSLIDSNNYEVGVDKLMKTAMVLEQEMGMVYEYTWIIGVPLIKKDLAVDLKETVTNSISNVSEKFVKGLGFDVELAEYWEKDYREQELEVYQNLSELLIERLTEDELYYYQAYQFLKNIPHERQDVLSSQNLDNLMATKIKPLFGGGLHLNCDYGESYISYLPMGDVGVFLDGNHFLEVVQKMPFPVEVKIQATFAESKGQLALSGRSSRARTRTKNIMQEAHLAGSKQKRKIVEGQLSLDDLDQKIDDGVDIIDWKAVIVVSGSTKKQMRARKKYLINRFDSLDIPLIKATFDNPYLFQSTLFGNFLRMQTSRWQHTSTIESFAELNFFTSLHAGTKLGFYLGRVDTTLEEKEDRKSIISSSKNLIFMNMLLANKEGVDGKKTNNPHWALTGDTGNGKSVTAKTLFMQMALLKDRVLYIDPKKEMRKQFMYTINDPEYQKKYPLDVDFVKSFNFVTLDVRDTKNHGVLDPIVLFDETEAIATTKAMLTNIYEGTWNLKQKTEINEAIAKVVLERKEGKKVGFWHVIERLVESEISDVKDMGRFILSTVKGSVLELAFSHGDVEGLSFDKKVTILEIEDLDLPTDKNENLDENKRLSVTLMFALGTFCSKFGSRNPKEETVTFFDESWIFQSSPEGKAILKSMKRIGRSFNNFLVLITQSTNDLDDSEDGTGFGTVICFDEVQNREGVLKYLNLPVNEINMKWVSNMVQGQCLMKDMFGQTNRIVVHVIFEEWLELFKTVDDTEASKMENRFVA”, “not soluble”; under “MELSSPITIYWDLPATAADPSLLLAIAAGIIDCRPLMLNVTSTAPTSPGWLGEVLERFRGGPAAVTLTIPPQAHDDTVRALVAHGAVRELLLDVDHADLLDSGEWQDEPSAGVSYAVTHGNWRELPTLVHYCLDRGITRLVLPMQRLYGGEPPFFLTMNEQRELANALDAEGGAQRLALTIHDPFLWRAFNPGVPFPQGGCQAANTMIAIAPDGGVYPCPTLPVRLGTAGEMPLQELIASEAKKALRRRLLEHPRACGACGELAECRGGCRGRAYVMHQSLEGEDPSCWLEHHHHHH”, “not soluble”.
On to “MSRFDSGLPSVRQVQLLIKDQTPVEIKLLTGDSLFGTIRWQDTDGLGLVDDSERSTIVRLAAIAYITPRR”, for which the “soluble on expression in E. coli” value was “soluble”.
For “MGSDKIHHHHHHMTYKVLHVGAGGFGERWCDTFLPSNNSDGTIEVVGLVDIDARALEIGRKHLGLKAKQCFTSAAQAFKAVDADFCTIVIPPALHEGIVDLALERGMHILSEKPIAATMEASVRIADKVRVAGRKMAVTMSHRFDQDKSTLRALVSDEALGRVNTVSCRFAGDYRAYDSWGRFRHEMIHPMLIEGAVHHLDIMADLAGAPCTSIYARSWKPEWAEYKGETDVMVLMDFANGAHGVYEGSSAQATGLNDWTFEYVRVEAASGTAILDHREVEVFHRDPKRIYQKNRHGKGQQVSLLGGKKWKNSLLIEQFCHWLDGGPPMATNVEDNLQSVALIFSAIESARLGQPVKVQEFLQSFRKSASIETQ”, the “soluble on expression in E. coli” value is “not soluble”.
In the case of “MTGIYYLYLRQDDPKKATMRKLERFGLAKRVDIKGVGLKLVLTPYADIFLSREDAVLYEKYGLCVIEGSWNKIDSIKSLKFRIERRLPALLAANPVNYGKIGILSSVEATAAALYIIGYWDTAYALLSKFSWGLNFIKLNENPLNEYSTADRSEIKKIEESYFGLEHHHHHH”, the “soluble on expression in E. coli” value is recorded as “soluble”.
As to “MEENSKLGLIDVFTGDGKGKTTAAFGLAFRALGWGYRVYILQFMKTGVYGENKSAIMFDRNLKVDFVGMPYFIAWENEIPKEDLDKVKNVVICKKGHPPDDYRRAVKERFDRSLEELKSGKWDMFIYDEINVALYYYLLSMEEVMEIFKAKPDHTELVFTGRKMPKEIMERADLITEVSSPRHPYQRGILARRGVDF”, the “soluble on expression in E. coli” value is “not soluble”.
Regarding “SQPIATQELQLGDELANKAFAATNRGDFVAAEDYWTQIIEKFPINAGAWINRGNSRVSQNKLEAALTDYNKAIELAPNLTDPYLNRGTALEGLGKWEDAIADYNYVLALDPNDAMAYNNRGNAKTGLGKWEDAISDYQKATAIAPNFAFARANYALALYETGQTDKAIREMRNIVRKYPKFADMRAALTAAYWVGGQKGEAESNWVAAYGLDTRYKDMDWVTNIRRWPPSMVAALDKFLKLN”, the “soluble on expression in E. coli” value was “soluble”.
Under “MGSDKIHHHHHHMTHQAATVHALNPATPEGLEVRLARTRAEVAAAQRIRYRVFYEEMGAKPTVAMQTLEQDFDDYDKHCDHLVVLADGDVVGTYRLIRRSAAQAVGRFYTAGEFDISPFLAVEGEILELGRSCVDARWRHRGTLQALWQGLAGYMVENDIRLLFGCGSLPGTDPEILAPQLAYLRDNHMAPPALRGRALDSAEKVDFAGIDVAWDARRVLASLPPLLKGYLRLGGVIGDGAVIDRPFNTTDVLVVVNAADIAGRYVKRFSA” stands “not soluble”; under “MSLRTSGSRLNSVRCASALTISGWKNNCVIEFDASGRIQSLREDSQSDVDLDLKGTVIAGIPNLHSHAHQKVITGLTEHRIAGQDDFWGWRELMYRANARLDPEQLQTIARYLYIDMLQKGYTSVAEFHYLHHQPDGTPYADLSEMSAQLLEAASEAGIAITLLPVLYCRGGFKDEPVQDSQHRFFNNPERYLALLESCHSLCANNPDRSLGFAAHSLRAVSPSAMSSTIEAAGPMLEGAPIHIHVAEQMREVNDCIEINGARPVAWLYDQCDVNDRWCLVHATHVDPQEQALLAQSGAIVGLCPTTEANLGDGIFPAAELMTNNGFLGVGSDSQVCTSPAEELRLLEYSQRFSLQRRTVLVPDEAGSNGRALTTAAIIGGNRARGEPLAGLQPGARGDLVEIGSDHVEFAGRSPDQVLDTWIFSGPDNPVQNVVAGGRHVVHDGVHPAMESASRAYREMVNALDLSEGHHHHHH”, “soluble”; under “MNKEEQYLLFALSAPMEILNQGCKPAHDSPKMYTGIKEFELSSSWGINNRDDLIQTIYQMTDDGHANDLAGLYLTWHRSSPEEWKALIAGGSERGLIYTQFVAQTAMCCGEGGIKAWDYVRMGFLSRVGVLNKWLTEEESLWLQSRVYVRAHHYYHSWMHYFSAYSLGRLYWQSSQCEDNTSLREALTLYKYDSAGSRMFEELAAGSDRFYATLPWQPLTVQSECPVTLKDVSDL”, “soluble”.
In the case of “MGSDKIHHHHHHMNIAIFGAGSTGCYLAGQLCISELQVSLICRPAIKQKIIANNGITLTDYNGFKQTIMPQALITDINQESSIYGKFDVVFVTLKCHQVSSIANQLMAITHDNSSIIFMQNGLGSFDSIKDSLDHYSLLQGITPFNVLQLPNAVFHKGTEGVFTLQANPHTIAIQSALVNHGFGCDIEADFTPMIYGKLLLNLNNALNAVTDLPIKQQLSHYKNRRILAKAMKEWLAVCEAADIQLHQYTKVKPSWLPTILLLPNVLFTVLAKQMLDIDPKARSSMWEDIQAKRKTEVDYINGAVVSIGKKYGIKTPVNQAIVEQIKQLEQRH”, the “soluble on expression in E. coli” value was “not soluble”.
Under “MVTEDVRATADDIADMEIRGAATIARAAADALESQATDSDADSPAAFRAELRAAARHLRDTRPTAVSLPNALRYVLGNTDGETVAALRASVTDAADAFRQQLDRAQDDLGAIGANRLRDGDTVMTHCHSTDALACVKAALDDGKHIEAVVKETRPRKQGHITADQLREWGVPVTLIVDNAGRRYLDAVDHVLVGADSIAADGSVINKIGTSMLAVVARERGVPVMVAAQTLKLHPDTLTGNTVEIEMRDETEVLAAADRHQLGAPDVENPAFDVTPPRYVDAIVTERGQFPPESIVTLMRELYGDGTTEPWAEDLEHHHHHH” stands “not soluble”; under “MAHHHHHHMNYDKLNLFKENFDMMYVIEEIETHLHEKKHLLCDINENILISEKNKTSIDIYEKHLIEKQIQILKKNKINYKKLNNINYVKYFLPLCIQPKTNNTDKCLSERDVYMKNFKKKNILRELHVKKRLTEYRINQFIEKYTGKFLKNNVLHKQISKIYNNKSKIEIFIKGDNFSYNRVIGDIAFFDSKPNVLLENVKYIVRKRKKKKLNNIKKNINI”, “not soluble”.
“MHIRRDQYMNEYVWETCEELDKKIADRVRLIRKRRSISQEKLSKISNVSLGSIKRFETTGQISLLSLTKIAVALNIADDLRNIFTEIPYNSIEEVINERR”: the “soluble on expression in E. coli” value is recorded as “not soluble”.
Regarding “IDRMDRFALRFRALQNQYEQHKSPMRGLCGMRAGLIPHQLFIAHEVGRRYAPRVLLADEVGLGKTIEAGMIIHQQVLSGRAERVLIVVPETLQHQWLVEMMRRFNLHFSIFDEERCVEAYADSENPFDTAQFVLCSLDFIRKSKRRFEQVVEADWDLLVVDEAHHLEWNQTKPSREYQVIEAIAEETPGVLLLTATPE”, the “soluble on expression in E. coli” value is listed as “not soluble”.
“SPNNSKHKKKQQRRQQEAQKKSRAKQIETDKKNDEFLDTELDEVSPLVIDDDMTEFKNMPKVELHAHLSGSLSPETIKLIMESDETRAEEIMKKYKLEKPENMTGVFDCFPVIHAILRKPEAIRIAIRQTIKEFEEDNCVYLELRTSPKETDFMTYEDYLQVCIESFEAAKHEFPRIKTFLIVSLDRRMPFETAAHILGLIGEAQQRTNVIVGVELSGDPHLDGRRLLKLFVAARRFHGLGITIHLAEVLQNMADVEDYLNLRPDRIGHGTFLHTDPYTEYLTNKYKIPLGENLIQLHLIFLFFLEICLSSNVYSKTTTNYRNSHFNYWRKRGVPVFICTDDKGVIPGATLTEEYYKAAITFDLSTEELIGINQDALLNSFAYKYNVTDLTETFRKINNNVLD”: the “soluble on expression in E. coli” value is “not soluble”.
In the case of “MGDHYGFSLTTFSPSGKLMQIEYALNAVKNGQPSVGLRAKDGVVLATENVGSVLTDDQPKVEQISKHIGCVYSGMGPDFRILVKKARKIAMEYEMMYGEEMPTIQLVTDIAAVMQEYTQSGGVRPFGASLLIAGWDKNPGRPLLFQCDPSGAYFAWKATALGKNDVNAKTFLEKRFSEALELDDGIHTALLTLRESFDVGMNENNVEVAVCNSTGFHRLTKQQVHDHLGTL”, the “soluble on expression in E. coli” value was “not soluble”.
Consider “MSLSNALVNPREAPAHGRFVPAPILAHRNCTQGALNMLEAKLKPHREYLLAQSAGQKLFLTLTVKPTAEARQARPDLSVVFVVDTSGSMREVVTEPTERTGRTTQVDGQVYEVVKGGKNKMQLMIEALRGIVTSTLIRPGDRLALVKFDDTAEVLVPFITASNQAQLAAAVDKLDWYSGGTHMGAGMRAGAGLLTGERGSRRMVLISDGQTFDAPLVEDQIGALAGLQVPVTVVAVGDEVNADLLTAIADRTQGQPLDIVPDTQNPQPPAIRASELPAALLGDLQKAAAEVVTGVALSVRTVKDVVLERVTRVQPTQTEVALRADGPLPLGNVDAGSGATFVLEFTLPARPATKMRLAQLGLTYEVPGANYRGEIPPLDVVVEFTGEEALAARIDPEVMGWVQQRNIEGLVAQATREANQNPEQAAKTLEQARAMTQRLGNGAMTQALDRAIGELGSSKTISLGTAKTLKIGAKTQTLSSDAALPSDEDIRRMTGEGGSHHHHHH”, for which the “soluble on expression in E. coli” value is reported as “soluble”.
